Experimental findings from a protein production outcome set (Wang et al. 2014) are described below.

A short description of the data set: label from the status in PepcDB records.

Turning to “MPVGIIGHYRCGEHNMGEHHPENGKRLTAISDQLIRSGLDYVVRQFDSKPIDKSLLALAHTQEHIDFVFDNAPNEGEENFTVGEDSVMNEKTLTSIMYSAGAAVDAVDLVMEGTLGAAFCATRPPGHHAEHDKGMGFCFFNNVAVAAAYAKQKYGLKRVAIVDFDVHHGNGTEDIITNHFNATPEDDKGYLFCSSYQYPLYPFEIQESDTPPIINTPLAATTKGEQFREKLTAHWLPALHKFKPELILISAGFDAHIEDEMSHVSLTEADYRWITDELKIIAEEYGKGRIVSVLEGGYAPSALGRSVVAHVNGLIGN”, the protein production entry is on record as “failed”.

Turning to “MPVKTFVFDQIQKLMGWCPACRKMTLQTEQPCNFINTAQISGKTGNIPEFRTSNIIFPANTTLVFVLFYICISLLLRYPEDISLFLAGLFLLNIFYYFLYLKTLEAAVLVDRFGVHMHAFRLKKFEIPFEEIESMKLCRLEKRSKKMSLLLVIGGIALCGFFVYIAVAEGEWKPLLLLVSIIPLLLLVEMKQKMRFWNLNTQLYIKTRHKKLYEWTPYYSLITDEASAEELKSFIERHL”, the protein production entry is reported as “failed”.

As for “MPVLVLLLAVGTGCVSTGTNPVSGNTRAYGYSWQEEVTMGQKADKQIQSQYGVYDDEELQEYVDGVAQEVLAESHMRRPDTPERFRNTEFEFRVLDSPIINAFALPGGYVYVTRGLVAHLNNEAQLAMVLGHEIGHVAARHASQQAARQKFTQGLLLSGAVAGQVAFGGNVAENVMGLGGQAAQLLSLSYSRDNERESDRLGVEYAVRAGYDGAEGAAFFESLERVREQGGQSIPTWQSTHPDPGARQQTIPELAQTWRKKVDRPATTIDQDAYYNALEGTVLGKNPRQGFVEEGVFYQPELAFRFSIPSRWDVQNQPQQVALVQPDQSAYMIFTFSDAETPDAAARKFAGQDGLSVLDRQSTSVNGNDARRVLAEGKTQQGQVVRLLTYFIAYGDNVYQFQGTTSADRYDAYRPDFERTMTSFARLTDSEKLNRQPARIAIQAADREGAFRSFVDTDALPSDMTEEDLAIINQLDVDQVVAPDRPLKLPN”, the protein production result is given as “failed”.

On to “MPVMQSRIIHLSVEKPWAEVYDFAANPGNMPRWAAGLAGGLEADGEDWIAKGGPLGEVRVNFAPHNEFGVIDHVVTLPDGLKVYNALRVTPNGSGTEVSFTLLRLEGMTDEDFEQDASAITADLEMLKSLLEAD”, for which the protein production entry is “not failed”.

On to “MPVPPEFPLSVFYDGSCSVCATEMEAYMRKEHGGRLLFVDISAPSFDPTPYGITLDAFMYQMHAIDRTGRVYLSVEAFWAIWQAFPASTLYGFLGALVMLPGVNLLARAGYRGFARIRKYLPRRRETCAGGSCRIGQREE”, for which the protein production result is “failed”.

Take “MPVRVIVDSSACLPTHVAEDLDITVINLHVMNNGEERSTSGLSSLELAASYARQLERGGDDGVLALHISKELSSTWSAAVTAAAVFDDDSVRVVDTSSLGMAVGAAAMAAARMAKDGASLQECYDIAVDTLKRSETWIYLHRIDEIWKSGRISTATAMVSTALATRPIMRFNGGRMEIAAKTRTQSKAFAKLVELAQIRADGEPVFIAIGQNEAREAAKQLEELLRNALPEGSSFMSVDIDPTLAVHSGPGAVSVSAVFANQAPELSTGKAGAK”: the protein production entry was “not failed”.

As to “MPVSNEIWQLLSRLAEDIRPIGVNISAGEPNRLWTEAKWRALLERFPGERFVVLSGPDDLDAKRRLEEQCPNAVASPPTRNLYEASCIVAKLRLLVTPDTSMVHVASATGTPVAGLYREAPQDISRFGPYAIPYEIVISPTGEVSGIKPESVADAVRRLMARAIGREALEHHHHHH”, the protein production result is recorded as “not failed”.

Take “MPYEMKFKGVYVLAMEDNSSFKGKIEVGDTVTGVDGKSFKSSEELMNYIKAQKVNQKVTVQFIQDGKAKEATGKLIELPTDKKAGIGIGLTDHTLEHHHHHH”: the protein production entry is “not failed”.

On to “MPYVDRQNRICGFLDIEDNENSGKFLRRYFILDTQANCLLWYMDNPQNLAVGAGAVGSLQLTYISKVSIATPKQKPKTPFCFVINALSQRYFLQANDQKDLKDWVEALNQASK”, for which the protein production entry is listed as “not failed”.

In the case of “MPYVFSFKMPQEQGQMFQYYPVYMVLPWEQPQQTVPRSPQQTRQQQYEEQIPFYAQFGYIPQLAEPAISGGQQQLAFDPQLGTAPEIAVMSTGEEIPYLQKEAINFRHDSAGVFMPSTSPKPSTTNVFTSAVDQTITPELPEEKDKTDSLREP”, the protein production result was “failed”.

On to “MQAALEVTARYCGRELEQYGQCVAAKPESWQRDCHYLKMSIAQCTSSHPIIRQIRQACAQPFEAFEECLRQNEAAVGNCAEHMRRFLQCAEQVQPPRSPATVEAQPLPAS”, for which the protein production entry is recorded as “failed”.

As for “MQADPAIRRFAKKRNKRVDRMILDSNYMHTSIDRYFPNESKRRGRPDIIYLLLEMTQESILNHKNQLRTYVHTRNNQVIRISPITRMPKSYNRFIGLFEDLFEKRIITNNGKELLSMEESSLGDLINSIRRDRTILLHPKGEMRKPSEFISNANILIVIGGFSEGDFISDTSFINERYAIFDQELTIWSVANEMVANYERAVGLTLEHHHHHH”, the protein production entry is “not failed”.

“MQAFFANPAVSWTLLTTGGILLVVIWVLLSLAFLLLADRKIWAGVQMRKGPNVVGPFGLLQSFADFFKFVLKEIVIPAGADKVVFILAPLISLILAFVGWAVVPFAPGWVVSNLNVGILYLLAMSSLGVYGIIMGGWASNSKYPFLGALRSAAQMVSYEVSIGLIIITVILLAGSMNLSTIVEKQSGWIWNWNVFGGGLNNLVLLPVMVVAMGMFYISALAETNRPPFDLPEAESELVAGYQVEYSSTPYLLFMVAEYSNIVLMCAMISVLFFGGWNPGFPTDFLSSWHPFAANLFLALVFYAKICFWFFMFAMAKAIVPRYRYDQLMRLGWKVFLPTSLVLVAAVAAWRVFGPAA”: the protein production entry was “failed”.

Turning to “MQAMTERLEAMLAQGTDNMLLRFTLGKTYAEHEQFDAALPHLRAALDFDPTYSVAWKWLGKTLQGQGDRAGARQAWESGLAAAQSRGDQQVVKELQVFLRRLAREDAQHGG”, the protein production entry is on record as “failed”.

Consider “MQAVHGRSRKPADPAYQAGLAEELRQSYGRAGLIELYGRFATGDGVVDSLMRKAIWQAITRRCGEGLQVASGAGFKHPETFEIGDGVFIGAQAYIQGRYDGTCVIGDNVWIGPMAYFDARDLVIEDSVGWGPGAKVLGSTHTALPIDVPIIRTDLEIRPVRICAEADIGTNATILPGVTIGKGAIVGAGAVVVSDVEPFSVAAGVPAKFIRWRSENDPMTNMSREGRS”, for which the protein production result is listed as “failed”.

Turning to “MQCNVCEFGCEIDEYSRGRCRTYVCTGDTIIQDPDMGYLGAYPVSIETIPLLHYYPSGKFLQVFGTGCNFQCSGCVARLLASGKSLSSTTLTPSQVVEKALQQDCLGVVSTLNEPAANYYLFRDLAVQAKEKGLLVGCSTNCYFTEETLNKLGQLVDFMNVGIKGYSDRSYISCGVPSSAPVFRNISLLFDMGVHVETSVVYSRGNEADVIKVAEAVSDISPTIPVQVMRFIPFGDAPIELEPSVGEAESLCADLRKYVDYVYLFNSPGTELLNTYCPECGSLLAEREFYGPMGSRPVRPWITYSCDCGKTVPVKGTTAVERFNEEGFMGGYRISRAFGMVHGVLTCLGILDDSRLIDVWREISDSGTLMKVHHMIQQPYAYLDFVRLIAERANMPEKGEELISFIHTRLELVKSLAAENSGHKVYYCMGSPLFALNAGRMENNLVAFSGGLSINKQLQKEGKPGINVSPSFINENNPDTIFISGFLSRPLDEFYTLCRQYGIETDAVKQQRVYEVPPSWDFGNPRWILGLMYIADKLYPGNSGIDLEKEADEFYRQFYGMPYLEHHHHHH”, the protein production entry is “not failed”.

In the case of “MQDELVILSSIASIMVAIIVLILFYIEKIRTYVGVFFVYFSLTMMIAMFVGASIYLLYPSRVSLAIAFGINTFIMIPLIAYFLLKIAKLANTPFRGERTHVVIFSILLVLNEILMGTTFGIAQFGFSRFSNLYYSLYFSINSYWFFYPMMAEMLALYLLHYLKGSINRELFPLIGLATFPPTAFDYQEWFYSALIFSLAFSILGSILSKRLWRYVYLMLILSELILLINAIPYDIAIAISMILYYYQSLLPLRR”, the protein production entry is recorded as “failed”.

With “MQDFRFVAAAIVFIFTLILVTVRPWKIDIGYGALIGAFVSIILGISTPADVIKVWNIIWNPTFTFVAIIAMSLVLDYAGFFEYYAIRISKFAGGNGIKLFVFIVILGSLTAAFFANDGAVLVLTPIVLSIMDMTGIGKKGAVAYIMAIGFISDSSSLPFVISNLVNIIGSGYFGISFASYAKVMVIPDIISVVSSLGLLLLYYRKDIPRIYQVESLPNPKNVIKDPLIFKLAFPFMAIVVLAYFLTSFDLVPVSFVAVPAATILIVVARYNHRINTRSIIAEAPWQVVVFSLGMYIVVYGFGDNGLTSVLVHVTKSILLLGNPLSTVLAGLLFGAMAGSMNNLPSVMMGALTISHLNQNSFLIYANVIGNDIGPKFTPIGSLATLLWIYTLQRKHGVQITPIYYMKVGFIIAFPVLVLTLLSLYATIYFGL”, the protein production entry is on record as “failed”.

On to “MQDGFLTVSIIDATNNRPIQNAVVNIYSMSNGSQSSSTLYQNLRSNESGQVTGLVLPAPDVDYSLQPSDVRPYSQYIVEAIADGYETVVIEGTQLLATIEARQGVPMSPRTRSKRSFSRQSELIFDIGEHTLYGTYPPKIPESNLKPLPPPTGFVVLDNPVVPEFIVVHDGLPEDSSAPNYWIPFKEYIKNIASSEIYSTWPEQTIYANVIAIISFTLNRVFTEWYRNKGYNFTITSTTAYDHKFINNRNLFEPINVVVDAIFNTFIKRPPTSRQPLLAQYCDGQKSQCPDQMTQWGSKDLGDQGYDYESILRYFYGDEIVFERAPIVSGVPVSFPGTTLQVGSSGQYVRTIQNQLNAISNSYPAVPKVIEDGIYGTDTENAVKIFQGIFGLPQSGVVDFKTWYEISRVYVATTRIASLNPLILEHHHHHH”, for which the protein production entry was “not failed”.

As for “MQDKNFDKLAQKFAKNIYGTPKGEIRAAVLWRDLAPALAQFGDKKLRILDAGGGFGYFSQKLARLGHEVVLCDISAEMLAQAKEQIDASDTPLAIRLVHAPIQALSITEHGMFDLILCHAVVEWLADAKTTMEGLLTMLKPNGLFSLMFYNKEAMRFHALVSGNFDYVAADLKVKKKVRLTPTHPLYIHEVKLWFAQWQMALLKESGVRVIHDYLKKQQAADFDYQKLLSMELEYSQREPYISLGRYVHFLGQSTATHSELEHHHHHH”, the protein production entry is “not failed”.

Consider “MQDNNARFPTIAKVLILRQFLWGAAFYGAFVLLTKFFLDDLNYSEADTIMMMGAFGAVGPVFSAVGGFLADKFIGAFRAVYIGYATYLAGFLLLGIGASQLNVPMSILAIALIGFARGLSATCPTVLFGNSYSETNREAFQQGLTVNYSINNLGSFSAKYLFPFLIAYLAYQGVFFVSAILMALNLLMFYKFRKELVSVGNDLDKTPLPLKTWVMFFAGSAAMLGLIFWIFSNLETGKYILYTLGFGAIGYFIYEITQATRAYQYKMVAVLITVCILIVFYFFYGQMFTSMNMYAINLMDDTLLGFIPIHPESNMAFNPLWCFVLGGPMIQLYAWLDRKGYSPTIPTKIAGAFMLSTIAFGLLGLSAGSIGENGKISADWILLVHFFQSGAELIVGALGAGFIFEMVPRYLAAFSIGLRAVAISLSGILAAVIATKIALPKDIVFTPEVVETVYTSYFYMLAQVAAFMAILTLGLSKVIQKLIARGEALEAEEKVDTTMRSNIG”, for which the protein production result was “failed”.

“MQDSLGIMIKKANNALARDSDHYAKSLGLTGMQISTINFIANNEQHHDLFQRDLELEFNIRKATCSSLVSKMEAADLLIRVPAKDDGRYKRLLLTPKARQLATKIERFFETSEQRMATILGVNTAETYEALRQIAVAFSTPTHAPENWYLEHHHHHH”: the protein production result is “not failed”.

As for “MQDSRPHPHDWNVSTDEAKRIQRRLASEVTERALPDGGETVAGIDVSVRDDTAQAAVSVLRLPELDVVDEATHRCEVPFPYVPGLLSFREMPAVLPALERLHSTPDVFVTDSHGAAHPRRFGLACHLGVLLDAPAIGVAKSILVGAPQGELGPEKGSRVPLVDDGETVGTVLRTRTDVNPVYVSVGHRCTLDGAADLMLDCSPRYKIPEPTRQAHKLSRAEGLEHHHHHH”, the protein production result was “not failed”.
